Measurements published in CN116023492A (XINJIANG YOUMAI BIOTECHNOLOGY CO LTD, dated 2023).

Biological target: T1, 人PDL1蛋白 (human, UniProt Q9NZQ7 19-239, limits assumed)
T1 construct: Bought recombinant protein; also called human PDL1; B7-H1
Assay: non-competitive ELISA, four coating concentrations of PDL1 (1, 0.5, 0.25, 0.125 ug/mL), KA=(n-1)/(nAb'-Ab), mean of 6 values

T1 sequence (Q9NZQ7 19-239 limits assumed): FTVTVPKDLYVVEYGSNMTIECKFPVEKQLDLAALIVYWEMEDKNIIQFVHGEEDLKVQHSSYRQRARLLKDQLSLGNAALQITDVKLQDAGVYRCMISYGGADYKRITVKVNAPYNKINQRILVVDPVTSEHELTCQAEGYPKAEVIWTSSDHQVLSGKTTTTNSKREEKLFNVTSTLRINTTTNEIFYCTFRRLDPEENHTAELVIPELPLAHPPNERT

Ka: 933000 M⁻¹
B1: 抗人PDL1纳米抗体 Nb2 (VHH)
VHH: QVQLQESGGGSVQAGGSLRLSCIASGVDYNSRTDRMAWFRQVPGKEREGVAAIYTYNNRTYYADSVKGRFTISQDIGKNTVYLQMNSLEPEDTATYYCARDWRFSSGMLDKNMYKYWGQGTQVTVSS
notes: Expressed from pMECS in E. coli TG1, Ni-purified; also called 抗PDL1(Nb2)纳米抗体; not shown: C-terminal HA and His tags from the pMECS vector
